This note sets out measurements from the supplement of paper PMC9170038.

This series has as its system MS2 coat protein. Put plainly: apparent KD of MS2 coat protein; designed switch direction (-1 OFF switch, 1 ON switch): -1; higher = weaker reporter binding. Put shortly: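 Designed RNA switches sharing common flanks were transcribed on Illumina chips by stalled E. coli RNA polymerase. They were titrated with SNAP-549-labelled MS2 coat protein, from 0.7 or 1.5 nM doubling to 3 µM, in Tris-HCl pH 7.5 buffer with KCl, MgCl2, BSA, DTT, tRNA and Tween-20. Titrations ran without input, with 200 uM small-molecule ligand, or with an oligonucleotide input. The apparent KD of each design is the median over its clusters, after curve-fitting of normalised cluster fluorescence.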

Setting [1] is: input ligand: microRNA oligo, concentration not stated.
The mark [2] stands for this setting: Eterna round: R95, input ligand: FMN 200 uM.
Where [3] appears, read: Eterna round: R95, input ligand: microRNA oligo, concentration not stated.
The mark [4] stands for this setting: Eterna round: R95, input ligand: none.

“GCACGGAAUGCAGGAUAUCUGUGCGAUUAGCUCAGAGAAGGGCACAUGAGGAUCACCCAUGUGUAUAAAACACAAAAUCCGUGC [Eli exng1 - 067] (Eterna round: R96, puzzle: Exclusion NG 1)”: the “apparent KD of MS2 coat protein” value is, setting by setting: (input ligand: FMN 200 uM) 13.5 nM; under setting [1], 7.71 nM; (input ligand: none) 13.8 nM.
With “UAAUGCAAGCAAAGAUUCUACAUGAGGAUCACCCAUGUGCUCGUCUUAUAAAGUACUAUCACGAAAGUGAUAGUACA [Mat - Sensor v3 - turn-off var 1 - Eli Mod - D96] (puzzle: Sensor v3, turn-off variant 1)”, the “apparent KD of MS2 coat protein” value under setting [2] came out at 25.7 nM, the “apparent KD of MS2 coat protein” value under setting [3] stood at 75.7 nM and the “apparent KD of MS2 coat protein” value under setting [4] was 27.1 nM.
On to “AAGGGUGCUUUUAGAACGACAUGAGGAUCACCCAUGUAGACUGAGGAUAUCUACUCCUAAGGACCGGAGAAGGCAGUGUAAUGC [Ex NG3 #64] (Eterna round: R96, puzzle: Exclusion NG 3)”, for which the “apparent KD of MS2 coat protein” value by setting is: (input ligand: FMN 200 uM) 57.8 nM; under setting [1], 75 nM; (input ligand: none) 55.9 nM.
On to “CGUCUGUAAGGAUAUGGUAGCGUUUACAUGAGGAUCACCCAUGUUACAUGGGACUAGAGACUAGAAGGUACGAACG [EX5 #51] (Eterna round: R97, puzzle: Exclusion 5)”, for which the “apparent KD of MS2 coat protein” value (input ligand: FMN 200 uM) is 589 nM and the “apparent KD of MS2 coat protein” value (input ligand: none) came to 2520 nM.
With “CUGUACUGAGGAUAUACAUGAGGAUCACCCAUGUUCUUCGGCUAGGAAACUAGCAAAGGUAGAAGGCAGUACAG [Mat - Exclusion 3 - Eli Mod - D68] (Eterna round: R97, puzzle: Exclusion 3)”, the “apparent KD of MS2 coat protein” value (input ligand: FMN 200 uM) is 234 nM and the “apparent KD of MS2 coat protein” value (input ligand: none) is 15.1 nM.
On to “UUUAAUUUUUUUUUUUUACAAGCUUUUUGCUCGUCUUAUACAUGAGGAUCACCCAUGUAGAUGGGAGAUAAAUUAUC [JMF 20] (puzzle: Sensor v3, turn-off variant 2)”, for which the “apparent KD of MS2 coat protein” value amounted to 33.8 nM under setting [2], 85.3 nM under setting [3] and 40.5 nM under setting [4].
The like results for “AGGGAUAAAGGAUAUACAUGAGGAUCACCCAUGUUGAGGAAAGUUAGAUGAGGAGGAAGUAGAAGGUUAGGCGA [JR_Exclu3_Sub086] (puzzle: Exclusion 3)” were, in that order, 31.1 nM, 31.7 nM and 40.4 nM.
As for “GGAUUUACUGAGGAUAUUACAUCACCCGAUUGAUAAGAAGGCAGAACAUGAGGAUCACCCAUGUGGGUAGUCAA [Polaris3] (Eterna round: R97, puzzle: Exclusion 6)”, the “apparent KD of MS2 coat protein” value (input ligand: FMN 200 uM) came to 70.1 nM and the “apparent KD of MS2 coat protein” value (input ligand: none) is 111 nM.
With “UUUAUAAUUUCAAUCUUCGCUGGCAAACUUACGCCAGCCACAUGAGGAUCACCCAUGUUUUUUGUUCGUUUUAUUCU [Xeinzarace] (puzzle: Sensor v3, turn-off variant 2)”, the “apparent KD of MS2 coat protein” value under setting [2] was 18.8 nM, the “apparent KD of MS2 coat protein” value under setting [3] came out at 49.8 nM and the “apparent KD of MS2 coat protein” value under setting [4] amounted to 22.6 nM.
For the sequence “GGAGGAGGAGUGAGGAUAUGGUGGUGGAAACACCACCAGAAGGCACAUGAGGAUCACCCAUGUGAUGUAGAGAA [AK-MS2ROC-r4-Bmoexclusion4-16] (Eterna round: R97, puzzle: Brourd's mod of Exclusion 4)”, the “apparent KD of MS2 coat protein” value is, setting by setting: (input ligand: FMN 200 uM) 27.4 nM; (input ligand: none) 16 nM.
Turning to “CCGCCACAUGAGGAUCACCCAUGUCAGGAUAUCUAUCAUAGCAUCGAAAGAUGCGGGUAGAGAAGGGACUAUCC [ChP Ext 10-04-2015 #6] (puzzle: Exclusion 1)”, the “apparent KD of MS2 coat protein” value under setting [3] was 28.1 nM.
“UUUAAACAUGAGGAUCACCCAUGUUAGGAUAUACGAAUGCAGACACACACGGAUGCAAGUAGAAGGAACCAUGC [Design #8] (Eterna round: R97, puzzle: Exclusion 1)”: the “apparent KD of MS2 coat protein” value (input ligand: FMN 200 uM) amounted to 44.1 nM and the “apparent KD of MS2 coat protein” value (input ligand: none) was determined as 44.1 nM.
“AAUGAGCAAGUCAGGAUAUUAAGCCACAGCUGGCGUAAGAAGGGACAUGAGGAUCACCCAUGUUCAUCCAAUGG [Eternabot (Original) Solution 15] (Eterna round: R97, puzzle: Brourd's mod of Exclusion 4)”: the “apparent KD of MS2 coat protein” value amounted to 24.5 nM (input ligand: FMN 200 uM) and 15.9 nM (input ligand: none).
For the sequence “UGAGACUGAGGAUAUACUAGACUACAAAGUAGUCAGUGGGUACAUGAGGAUCACCCAUGUAGAAGGCAGCCUCG [Omei Repeat Sequence v1] (Eterna round: R97, puzzle: Exclusion 2)”, the “apparent KD of MS2 coat protein” value (input ligand: FMN 200 uM) amounted to 289 nM and the “apparent KD of MS2 coat protein” value (input ligand: none) was 35.9 nM.
In the case of “AAAUCCGCUGAGGAUAUUAUGACUGAGAGGUCAUGAGAAGGCGGUACAUGAGGAUCACCCAUGUCUAUGGGCAA [Ex-6 Malc#27] (puzzle: Exclusion 6)”, the “apparent KD of MS2 coat protein” value is, setting by setting: under setting [2], 377 nM; under setting [3], 292 nM; under setting [4], 553 nM.
Turning to “AAAGACCUGGAGGAUAUCAGACACACCAGCGUCUGAGAAGGCCAGACAUGAGGAUCACCCAUGUAGGGUUCUCC [EX6 B.22] (Eterna round: R97, puzzle: Exclusion 6)”, the “apparent KD of MS2 coat protein” value by setting is: (input ligand: FMN 200 uM) 104 nM; (input ligand: none) 29.4 nM.
For the sequence “AGCUGUGGCCGAGGAUAUCUAAUAAUCCCAACCGAAAUAUAAUCGGACAUGAGGAUCACCCAUGUAGAGAAGGCGGUCUCAGCA [Eli eng2 - 066] (Eterna round: R96, puzzle: Exclusion NG 2)”, the “apparent KD of MS2 coat protein” value under setting [1] stood at 96.6 nM.
As to “UACCUAUAGUAAGGAUAUCAUUGCGAUUAGCUAUGAGAAGGUACACAUGAGGAUCACCCAUGUCCUCCAAUUAACCGAAAGGUA [7th something] (Eterna round: R96, puzzle: Exclusion NG 1)”, the “apparent KD of MS2 coat protein” value worked out at 318 nM (input ligand: FMN 200 uM), 170 nM under setting [1] and 178 nM (input ligand: none).
Take “GUAUAACUACACGGGCUCAACAUGAGGAUCACCCAUGUCAUAUACGCAAGCUUUUUGCUUGUCUUAUCAGGCCGUGA [Ceatxe] (puzzle: Sensor v3, turn-off variant 1)”: the “apparent KD of MS2 coat protein” value is 13.5 nM under setting [2], 16.5 nM under setting [3] and 12.4 nM under setting [4].
The like results for “AGAUGACUGGAGGAUAUCCGAUGCUUCCUGCCAGGAGAAGGCCGGACAUGAGGAUCACCCAUGUGGUGAGCUCG [Vezaatinle] (puzzle: Exclusion 6)” were, in that order, 329 nM, 347 nM and 444 nM.
As for “UAUAUAUAGUAAGGAUAUGUAUCUAUUUUAUAAACAGAAGGUACUGACAUGAGGAUCACCCAUGUUUUAGUGUGGGCAUGUAGA [JMF's solution 8] (Eterna round: R96, puzzle: Exclusion NG 1)”, under setting [1], the “apparent KD of MS2 coat protein” value was 71.6 nM.
As for “AUCAGCUCGUGAGGAUAUAUAUUAACAUGAGGAUCACCCAUGUAAGAUCAGCUUCGGCAGUUAAUAUAGAAGGCACGAGCUGAU [ENG2/14-A2] (Eterna round: R96, puzzle: Exclusion NG 2)”, the “apparent KD of MS2 coat protein” value amounted to 151 nM (input ligand: FMN 200 uM), 98.8 nM under setting [1] and 114 nM (input ligand: none).
“CUCGAGUGAGGAUAUAUACUUCCAUCAUUUGAGAGAGAAGUAUAGAAGGCACAUGAGGAUCACCCAUGUAUAAA [Rierreis] (puzzle: Exclusion 4)”: the “apparent KD of MS2 coat protein” value under setting [3] came out at 41.3 nM.
Turning to “GGUAGUAUGAGUAGUCCUCAUUGAAGAGAGUGGUAAGAAACAUGAGGAUCACCCAUGUAAGAACAAGCUUUUGCUCA [JR_Sv3TOV2_Sub005] (puzzle: Sensor v3, turn-off variant 2)”, the “apparent KD of MS2 coat protein” value is, setting by setting: under setting [2], 191 nM; under setting [3], 15.9 nM; under setting [4], 266 nM.
Turning to “AGCUAGUCAGGAUAUACAAACAUGUCAAAAGACGUGAAGGGACAUGAGGAUCACCCAUGUAGAAGGGACUAGCA [Web Mod 74% 2] (Eterna round: R96, puzzle: Exclusion 2)”, the “apparent KD of MS2 coat protein” value by setting is: (input ligand: FMN 200 uM) 304 nM; under setting [1], 43.1 nM; (input ligand: none) 49.2 nM.
Consider “GGUUGGCGAGGAUAUACAUGAGGAUCACCCAUGUGAGAAUUAAAAGUGAGGAAGAAAAGUAGAAGGCGCUGACG [Mat - Exclusion 3 - Mod of Salish D4] (puzzle: Exclusion 3)”, for which the “apparent KD of MS2 coat protein” value by setting is: under setting [2], 304 nM; under setting [3], 36.1 nM; under setting [4], 384 nM.
The like results for “GCGAAAGCAAGCAAGUGAAACAUGAGGAUCACCCAUGUCCUCAUUUGCUCGUCUUAUAAAAGCUAUCGAAAGAUAGC [Sensor 3, v1 - 1] (puzzle: Sensor v3, turn-off variant 1)” were, in that order, 11.6 nM, 172 nM and 13.5 nM.
For the sequence “UGCAGACGAGGAUAUAGAUUUAAGUACAUGAGGAUCACCCAUGUACAUAUGUAUUUAGAUUUAGAAGGCGUCUGCU [E5/16-A4] (Eterna round: R97, puzzle: Exclusion 5)”, the “apparent KD of MS2 coat protein” value is, setting by setting: (input ligand: FMN 200 uM) 28.5 nM; (input ligand: none) 29.8 nM.
As to “UGUUUACAUGAGGAUCACCCAUGUCAGGAUAUGAUCGAUAUAUGGAAACAUAUAUCGAUCAGAAGGGACUAGUG [Jieuxxlusion 2 - Jieux - Exclusion 1] (Eterna round: R97, puzzle: Exclusion 1)”, the “apparent KD of MS2 coat protein” value amounted to 88.2 nM (input ligand: FMN 200 uM) and 82.6 nM (input ligand: none).
As to “CCGGGCCCGGGAGGAUAUACAUGAGGAUCACCCAUGUGGGCCCGGGCCCGCGGGCCCGGGCCCGUGUAGAAGGCCCGGGCCCGG [-64.8, -63.2 kcal, A 14%] (Eterna round: R96, puzzle: Exclusion NG 2)”, the “apparent KD of MS2 coat protein” value is, setting by setting: (input ligand: FMN 200 uM) 27.2 nM; under setting [1], 5.13 nM; (input ligand: none) 19.9 nM.
